Reference: US20180362668A1 (JIANGSU ALPHAMAB BIOPHARMACEUTICALS, published 2018)

Experiments:
[1] = target: the molecule itself; assay: non-reducing SDS-PAGE densitometry of Protein A-purified co-transfection product; chain A:chain B vectors 1:4
Description: (§1) The cotransfection ratio of recombinant expression vector of the chain A to that of the chain B was 4:1, 1:1 and 1:4.

[2] = target: the molecule itself; assay: non-reducing SDS-PAGE densitometry of Protein A-purified co-transfection product; chain A:chain B vectors 1:1
Description: The cotransfection ratio of recombinant expression vector of the chain A to that of the chain B was 1:1.

[3] = target: the molecule itself; assay: non-reducing SDS-PAGE of Protein A-purified co-transfection product; chain A:chain B vectors 4:1
Description: (§2) The respective transient transfection products were obtained through Protein A affinity chromatography.

[4] = target: the molecule itself; assay: non-reducing SDS-PAGE densitometry of Protein A-purified co-transfection product; chain A:chain B vectors 1:1; remark: listed apart in the source
[5] = target: the molecule itself; assay: as above; remark: listed apart in the source
Description: as §1

[6] = target: the molecule itself; assay: non-reducing SDS-PAGE densitometry of Protein A-purified co-transfection product; chain A:chain B vectors 4:1
Description: as §1

[7] = target: the molecule itself; assay: non-reducing SDS-PAGE of Protein A-purified co-transfection product; chain A:chain B vectors 1:4
Description: as §2

[8] = target: the molecule itself; assay: non-reducing SDS-PAGE densitometry of Protein A-purified co-transfection product; chain A:chain B vectors 1:1; remark: listed apart in the source
Description: (§3) The cotransfection ratio of recombinant expression vector of the chain A to that of the chain B was 4:1, 1:1 and 1:4. The transiently expressed culture supernatant was collected after 5-6 days of cultivation.

[9] = target: the molecule itself; assay: non-reducing SDS-PAGE densitometry of Protein A-purified co-transfection product; chain A:chain B vectors 4:1; remark: listed apart in the source
Description: as §3

[10] = target: the molecule itself; assay: non-reducing SDS-PAGE densitometry of Protein A-purified co-transfection product; chain A:chain B vectors 1:4; remark: listed apart in the source
Description: as §3

B1: ScFv-Fc fusion protein chain A with Y349C + T366W + K409A (Fc fusion)
chain: EVQLLESGGGVVQPGRSLRLSCIASGFTFSSYPMTWVRQAPGKGLEWVASISYDGSYKYKADSMKGRLTISRDNSKNTLYLEMNSLTAEDTAVYYCARTAFFNAYDFWGQGTLVTVSSASTKGPSVGGGGSGGGGSEIVMTQSPATLSVSPGERATLSCRASQSVRSNLAWYQQKPGQAPRLLIYAASTRATGIPARFSGSGSGTEFTLTISSLQSEDFAVYYCQQYNEWFRTSGQGTKVEIKRDKTHTCPPCPAPELLGGPSVFLFPPKPKDTLMISRTPEVTCVVVDVSHENPEVKFNWYVDGVEVHNAKTKPREEQYNSTYRVVSVLTVLHQDWLNGKEYKCKVSNKALPAPIEKTISKAKGQPREPQVCTLPPSRDELTKNQVSLWCLVKGFYPSDIAVEWESNGQPENNYKTTPPVLDSDGSFFLYSALTVDKSRWQQGNVFSCSVMHEALHNHYTQKSLSLSPGK
notes: Positions are EU index; also called combination 4 chain A
- ScFv-Fc homodimer (%) [1]: < 1%
- ScFv-Fc homodimer (%) [2]: 21%
- ScFv-Fc homodimer (%) [3]: 46%
- ScFv-Fc homodimer (%) [4]: 10%
- ScFv-Fc homodimer (%) [5]: 13%
- ScFv-Fc homodimer (%) [6]: 46%
- ScFv-Fc homodimer (%) [7]: 4%

B2: ScFv-Fc fusion protein chain A with T366W + F405K + D399S (Fc fusion)
chain: EVQLLESGGGVVQPGRSLRLSCIASGFTFSSYPMTWVRQAPGKGLEWVASISYDGSYKYKADSMKGRLTISRDNSKNTLYLEMNSLTAEDTAVYYCARTAFFNAYDFWGQGTLVTVSSASTKGPSVGGGGSGGGGSEIVMTQSPATLSVSPGERATLSCRASQSVRSNLAWYQQKPGQAPRLLIYAASTRATGIPARFSGSGSGTEFTLTISSLQSEDFAVYYCQQYNEWFRTSGQGTKVEIKRDKTHTCPPCPAPELLGGPSVFLFPPKPKDTLMISRTPEVTCVVVDVSHENPEVKFNWYVDGVEVHNAKTKPREEQYNSTYRVVSVLTVLHQDWLNGKEYKCKVSNKALPAPIEKTISKAKGQPREPQVYTLPPSRDELTKNQVSLWCLVKGFYPSDIAVEWESNGQPENNYKTTPPVLSSDGSFKLYSKLTVDKSRWQQGNVFSCSVMHEALHNHYTQKSLSLSPGK
notes: Positions are EU index; also called combination 15 chain A
- ScFv-Fc homodimer (%) [8]: 6%
- ScFv-Fc homodimer (%) [9]: 28%
- ScFv-Fc homodimer (%) [10]: < 1%

B3: ScFv-Fc fusion protein chain A with T366W + F405K (Fc fusion)
chain: EVQLLESGGGVVQPGRSLRLSCIASGFTFSSYPMTWVRQAPGKGLEWVASISYDGSYKYKADSMKGRLTISRDNSKNTLYLEMNSLTAEDTAVYYCARTAFFNAYDFWGQGTLVTVSSASTKGPSVGGGGSGGGGSEIVMTQSPATLSVSPGERATLSCRASQSVRSNLAWYQQKPGQAPRLLIYAASTRATGIPARFSGSGSGTEFTLTISSLQSEDFAVYYCQQYNEWFRTSGQGTKVEIKRDKTHTCPPCPAPELLGGPSVFLFPPKPKDTLMISRTPEVTCVVVDVSHENPEVKFNWYVDGVEVHNAKTKPREEQYNSTYRVVSVLTVLHQDWLNGKEYKCKVSNKALPAPIEKTISKAKGQPREPQVYTLPPSRDELTKNQVSLWCLVKGFYPSDIAVEWESNGQPENNYKTTPPVLDSDGSFKLYSKLTVDKSRWQQGNVFSCSVMHEALHNHYTQKSLSLSPGK
notes: Positions are EU index; also called combination 16 chain A
- ScFv-Fc homodimer (%) [8]: 5%
- ScFv-Fc homodimer (%) [9]: 23%
- ScFv-Fc homodimer (%) [10]: 3%

B4: ScFv-Fc fusion protein chain A with T366W + F405K + Y349D + S354D (Fc fusion)
chain: EVQLLESGGGVVQPGRSLRLSCIASGFTFSSYPMTWVRQAPGKGLEWVASISYDGSYKYKADSMKGRLTISRDNSKNTLYLEMNSLTAEDTAVYYCARTAFFNAYDFWGQGTLVTVSSASTKGPSVGGGGSGGGGSEIVMTQSPATLSVSPGERATLSCRASQSVRSNLAWYQQKPGQAPRLLIYAASTRATGIPARFSGSGSGTEFTLTISSLQSEDFAVYYCQQYNEWFRTSGQGTKVEIKRDKTHTCPPCPAPELLGGPSVFLFPPKPKDTLMISRTPEVTCVVVDVSHENPEVKFNWYVDGVEVHNAKTKPREEQYNSTYRVVSVLTVLHQDWLNGKEYKCKVSNKALPAPIEKTISKAKGQPREPQVDTLPPDRDELTKNQVSLWCLVKGFYPSDIAVEWESNGQPENNYKTTPPVLDSDGSFKLYSKLTVDKSRWQQGNVFSCSVMHEALHNHYTQKSLSLSPGK
notes: Positions are EU index; also called combination 18 chain A
- ScFv-Fc homodimer (%) [8]: 9%
- ScFv-Fc homodimer (%) [9]: 29%
- ScFv-Fc homodimer (%) [10]: 5%

B5: ScFv-Fc fusion protein chain A with Y349C + T366W + K409E (Fc fusion)
chain: EVQLLESGGGVVQPGRSLRLSCIASGFTFSSYPMTWVRQAPGKGLEWVASISYDGSYKYKADSMKGRLTISRDNSKNTLYLEMNSLTAEDTAVYYCARTAFFNAYDFWGQGTLVTVSSASTKGPSVGGGGSGGGGSEIVMTQSPATLSVSPGERATLSCRASQSVRSNLAWYQQKPGQAPRLLIYAASTRATGIPARFSGSGSGTEFTLTISSLQSEDFAVYYCQQYNEWFRTSGQGTKVEIKRDKTHTCPPCPAPELLGGPSVFLFPPKPKDTLMISRTPEVTCVVVDVSHENPEVKFNWYVDGVEVHNAKTKPREEQYNSTYRVVSVLTVLHQDWLNGKEYKCKVSNKALPAPIEKTISKAKGQPREPQVCTLPPSRDELTKNQVSLWCLVKGFYPSDIAVEWESNGQPENNYKTTPPVLDSDGSFFLYSELTVDKSRWQQGNVFSCSVMHEALHNHYTQKSLSLSPGK
notes: Positions are EU index; also called combination 3 chain A
- ScFv-Fc homodimer (%) [4]: 25%

B6: ScFv-Fc fusion protein chain A with Y349C + T366W (Fc fusion)
chain: EVQLLESGGGVVQPGRSLRLSCIASGFTFSSYPMTWVRQAPGKGLEWVASISYDGSYKYKADSMKGRLTISRDNSKNTLYLEMNSLTAEDTAVYYCARTAFFNAYDFWGQGTLVTVSSASTKGPSVGGGGSGGGGSEIVMTQSPATLSVSPGERATLSCRASQSVRSNLAWYQQKPGQAPRLLIYAASTRATGIPARFSGSGSGTEFTLTISSLQSEDFAVYYCQQYNEWFRTSGQGTKVEIKRDKTHTCPPCPAPELLGGPSVFLFPPKPKDTLMISRTPEVTCVVVDVSHENPEVKFNWYVDGVEVHNAKTKPREEQYNSTYRVVSVLTVLHQDWLNGKEYKCKVSNKALPAPIEKTISKAKGQPREPQVCTLPPSRDELTKNQVSLWCLVKGFYPSDIAVEWESNGQPENNYKTTPPVLDSDGSFFLYSKLTVDKSRWQQGNVFSCSVMHEALHNHYTQKSLSLSPGK
notes: also called combination KH chain A; combination 1 chain A
- ScFv-Fc homodimer (%) [3]: 52%
- ScFv-Fc homodimer (%) [7]: 10%

B7: VhH-Fc fusion protein chain B with T366S + L368G + Y407A + K409A (Fc fusion)
chain: QVQLQESGGGSVQAGGSLRLSCAASEYIYSSYCMAWFRQAPGKEREGVAVIGSDGSTSYADSVKGRFTISKDNAKNTLYLQMNSLKPEDTAMYYCAAIGGYCYQPPYEYQYWGQGTQVTVSSEPKSSDKTHTCPPCPAPELLGGPSVFLFPPKPKDTLMISRTPEVTCVVVDVSHEDPEVKFNWYVDGVEVHNAKTKPREEQYNSTYRVVSVLTVLHQDWLNGKEYKCKVSNKALPAPIEKTISKAKGQPREPQVYTLPPSRDELTKNQVSLSCGVKGFYPSDIAVEWESNGQPENNYKTTPPVLDSDGSFFLASALTVDKSRWQQGNVFSCSVMHEALHNHYTQKSLSLSPGK
notes: Positions are EU index; also called combination 16 chain B
- VhH-Fc homodimer (%) [8]: 7%
- VhH-Fc homodimer (%) [9]: < 1%
- VhH-Fc homodimer (%) [10]: 4%

B8: VhH-Fc fusion protein chain B with T366S + L368G + Y407A + F405K (Fc fusion)
chain: QVQLQESGGGSVQAGGSLRLSCAASEYIYSSYCMAWFRQAPGKEREGVAVIGSDGSTSYADSVKGRFTISKDNAKNTLYLQMNSLKPEDTAMYYCAAIGGYCYQPPYEYQYWGQGTQVTVSSEPKSSDKTHTCPPCPAPELLGGPSVFLFPPKPKDTLMISRTPEVTCVVVDVSHEDPEVKFNWYVDGVEVHNAKTKPREEQYNSTYRVVSVLTVLHQDWLNGKEYKCKVSNKALPAPIEKTISKAKGQPREPQVYTLPPSRDELTKNQVSLSCGVKGFYPSDIAVEWESNGQPENNYKTTPPVLDSDGSFKLASKLTVDKSRWQQGNVFSCSVMHEALHNHYTQKSLSLSPGK
notes: Positions are EU index; also called combination 11 chain B
- VhH-Fc homodimer (%) [1]: 0%
- VhH-Fc homodimer (%) [5]: 0%
- VhH-Fc homodimer (%) [6]: 0%
